{
  "source": "paper PMC7775388",
  "biological_target": "full-length SARS-CoV-2 spike protein (residues 13-1273 of UniProtKB P0DTC2) fused to green fluoresce (SARS-CoV-2) (UniProt P0DTC2)",
  "assay": "flow cytometry on cells",
  "data": [
    {"substance": "recombinant ACE2-Fc fusion protein (residue Gln18-Ser760 fused to human Fc)", "values": [
      {"measurement": "Kd", "result": 10.9, "unit": "nM"}
    ]}
  ]
}
